Patent publication US20100062980A1, “THERAPEUTIC USES OF BETA-ANTAGONISTS” (priority 2006, published 2010)
Entries after “also recorded” stand apart in the source; their conditions may differ.

Legend:
[1] = system: Swiss albino male mice; format: in vivo; conditions: mice
Excerpt: (§1) Swiss albino male mice (˜20 g) were used for the in vivo toxicity study. Male Sprague-Dawley (SD) rats were used for electrocardiogram (ECG) monitoring (3-4 weeks old, ˜80-100 g) and the Langendorff isolated perfused heart experiments (8 weeks old, ˜250 g). Animals were acquired from the university Laboratory Animal Center (LAC) and were acclimatized to the Animal Holding Unit surroundings for at least 3 days prior to the experiments. Animals were kept under standard conditions with food and water available ad lib. All animal experiments were conducted according to the protocol (776/05a) approved by the Institutional Animal Care and Use Committee (IACUC) of the National University of Singapore.
(§2) The protein was dissolved in 200 μl of 0.9% NaCl (Braun, Malaysia) and administered through the intra-peritoneal (i.p.) route for the in vivo toxicity study in mice. Intra-tail vein (i.t.v.) administration was done in the ECG monitoring study in rats. The various protein doses were dissolved in 200 μl of 0.9% NaCl solution and injected into the tail vein using a 27 G ½ needle (Becton Dickinson, Franklin Lakes, N.J.) held at an angle of about 10° to the tail. The infusion was made very slowly and at a steady rate.
After purification of the protein from snake venom, i.p. doses of 1 mg/kg, 10 mg/kg and 100 mg/kg were administered to healthy male mice (three animals per group) and the symptoms were observed and recorded. 0.9% NaCl was injected as control. Postmortem examinations were conducted on the animals after their death/sacrifice.

[2] = system: Langendorff isolated perfused rat hearts; assay: Langendorff isolated perfused heart; conditions: 5 μM in KH solution, 10 min
Experimental: Rats were anesthetized with 7% chloral hydrate (5 ml/kg). 2 ml of 50 I.U. heparin (David Bull Laboratories, Warwick, UK) was injected i.p. 15 min prior to sacrificing the animal. The heart was excised rapidly and placed in oxygenated Krebs-Henseleit (KH) solution (in mM/1: NaCl 118.0, KCl 4.5, KH2PO4 1.4, MgSO4 1.2, NaHCO3 25, CaCl2 1.4 and glucose 11; pH 7.4) before the aorta was cannulated on the Langendorff apparatus. Non-recirculating mode of retrograde perfusion with KH solution was carried out at a constant flow (6-7 ml/min) at 37° C. The buffer was continuously bubbled with 95% O2 and 5% CO2. The hearts were allowed to equilibrate for 30 min and in study groups the buffer flow was switched to a second reservoir which contained 5 μM of the protein dissolved in KH solution, plain KH solution was passed for further 15 min in case of control group.
A water-filled latex balloon was attached to a pressure transducer and inserted through the mitral valve into the left ventricle (LV) through an incision in the left atrium. The pressure transducer was connected to a Powerlab (ADInstruments, Castle Hill, NSW, Australia) data recording system. The following indices of cardiac performance were measured and averaged from ten beats for each condition: heart rate (HR, in beats/min) and left ventricle diastolic end pressure (LVDEP, in mmHg), which is an index of contractile activity. […]

[3] = system: anesthetized male rats; assay: Electrocardiogram monitoring and heart rate determination; format: in vivo, Sprague-Dawley rats; conditions: i.t.v., 1 mg/kg, 10 min after administration (FIG. 8)
Excerpt: as §1, §2
For electrocardiogram (ECG) measurements, Sprague-Dawley rats were anesthetized with an i.p. dose of 7% chloral hydrate (5 ml/kg). […]

[4] = system: intrinsic pathway of blood coagulation (human plasma); assay: Anticoagulant activity, recalcification time; format: biochemical; conditions: 50 μM protein per assay, vs control
Experimental: (§3) The anticoagulant activity of the purified protein was tested by two coagulation tests using a BBL fibrometer. Blood plasma was collected from healthy human volunteers.
Recalcification time—The recalcification times were measured according to the method of Langdell et al. (26). 100 μl of 50 mM Tris-HCl buffer (pH 7.4), 100 μl of plasma and 50 μl of the protein dissolved in the assay buffer were preincubated for 2 min at 37° C. Clotting was initiated by the addition of 50 μl of 50 mM CaCl2.

[5] = system: extrinsic pathway of blood coagulation (human plasma); assay: Anticoagulant activity, prothrombin time; format: biochemical; conditions: 50 μM protein per assay, vs control
Experimental: as §3
Prothrombin time—The prothrombin times were measured according to the method of Quick (25). 100 μl of 50 mM Tris-HCl buffer (pH 7.4), 100 μl of plasma and 50 μl of the protein dissolved in the assay buffer were preincubated for 2 min at 37° C. Clotting was initiated by the addition of 150 μl of thromboplastin with calcium reagent (Sigma-Aldrich, St Louis, Mo.).

B1: β-cardiotoxin: three-finger toxin protein isolated from Ophiophagus hannah (king cobra) venom, SEQ ID No.3, β-adrenergic receptor blocker (protein)
chain: RKCLNTPLPLIYTTCPIGQDKCVKMTIKKLPSKYDVIRGCIDICPKSSADVEVLCCDTNKCNK
[1]; i.p., 100 mg/kg
  postmortem examination: did not reveal any hemorrhage or visual damage to internal organs
  time to death: about 30 min
[1]; intraperitoneal
  dose up to which the protein was not lethal: ≤ 10 mg/kg
[2]
  change in contractility (LVDEP): without any significant change in the contractility; also recorded: without affecting the contractility
  change in heart rate: dose-dependent decrease of the heart rate; also recorded: marked reduction in the heart rate
[3]
  change in heart rate (ECG): dose-dependent decrease of the heart rate; also recorded: decrease in the heart rate; also recorded: dose-dependent decrease in heart rate
[4]
  change in clotting time, recalcification time: does not show any hemolytic or anticoagulant activity; also recorded: did not cause any significant changes in the clotting time
[5]
  change in clotting time, prothrombin time: does not show any hemolytic or anticoagulant activity; also recorded: did not cause any significant changes in the clotting time
